The results in this text go back to article PMC6029366.

This assay deals with M1R-TEV-tTA fusion protein.

The substance “β-arrestin-TEV protease (from UniProt P32121 1-409) (natural protein)” yielded a TANGO β-arrestin recruitment assay, luciferase reporter (RLU), HTLA cells treated with the muscarinic agonist carbachol of 7.4 fold.
